# Laboratory results taken from patent US20140147444A1 (published 2014).
# Several values for one entry are separate records, joined by “and”; a condition that tells them apart may be missing. Identical values can stand only once.
# T1: human OPGbp [143-317] (human, UniProt O14788 143-317)
# T1 construct: also called OPGL
# T1 sequence (looked up): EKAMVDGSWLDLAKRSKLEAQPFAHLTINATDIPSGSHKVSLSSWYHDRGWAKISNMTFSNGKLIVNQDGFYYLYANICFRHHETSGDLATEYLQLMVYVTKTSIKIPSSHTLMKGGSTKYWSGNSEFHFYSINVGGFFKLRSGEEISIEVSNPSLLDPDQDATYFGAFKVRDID
# Assays:
# human OPGbp [143-317] [1] = target: T1, human OPGbp [143-317]; assay: SPR (BIAcore), immobilized OPGbp [143-317]
# human OPGbp [143-317] [2] = target: T1, human OPGbp [143-317]; assay: FRET competition, inhibition of OPGbp-Eu binding to sODAR-Fc, in PBS
# Procedure: (§1) A 1 hour preincubation with OPGbp was added for increased sensitivity. A soluble extracellular domain of human ODAR was constructed as a fusion polypeptide with an amino terminal FLAG tag and a carboxy terminal human Fc region. The Fc region is recognized and bound by a polyclonal goat anti-human Fc specific allophycocyanin (APC) which is detected by […] at 665 nm. […] Binding of OPGbp to ODAR in this assay triggers a fluorescent energy transfer and is highly sensitive for competition curves. A decrease in the A665/A620 absorbance ratio indicates inhibition of OPGbp binding to ODAR.
# (§2) The Fab “Y” clone 1B4 was from the predominant 9 member pattern from one 96-well plate (all with same amino acid sequence) from the optimized plated OPGbp screen using a 1 μM OPGbp elution for 90 min. […] Similar IC50's were obtained with the duplicate preparations “A” and “B”.
# human OPGbp [143-317] [3] = target: T1, human OPGbp [143-317]; assay: SPR (BIAcore), OPGbp on CM5 chip
# Procedure: The binding constant (Kd), on rate constant (ka) and off rate constant (kd) for Fabs “AT” and “Y” and “AT” antibody were determined by surface plasmon resonance techniques (BIAcore, Pharmacia, Piscataway, N.J.) and the results are shown in Table II. Fabs were prepared as described in Example 4 and “AT” antibody prepared as described in Example 7. OPGbp was immobilized on a CM5-chip by standard amine coupling. The Kd and rate constants were determined by BIAEVALUATION 3.0 software (Pharmacia).
# human OPGbp [143-317] [4] = target: T1, human OPGbp [143-317]; assay: FRET competition, inhibition of OPGbp-Eu binding to sODAR-Fc
# Procedure: as §1, §2
# human OPGbp [143-317] [5] = target: T1, human OPGbp [143-317]; assay: FRET competition, inhibition of OPGbp-Eu binding to sODAR-Fc, in TBS
# Procedure: as §1, §2
# human OPGbp [143-317] [6] = target: T1, human OPGbp [143-317]; assay: cell-based or functional assay
binder,measurement,setting,value
"Fab “AT” (Fab, V domains shown, Soluble Fab from E. coli periplasm purified on Talon resin; also called soluble Fab “AT”; Fab pattern “AT”) VH: QVQLVQSGAEVRKPGASVKVSCKASGYDFSNYAIHWVRQAPGQRLEWMGWINAGNGNTKFSQKFQGRITVTRDTAASTAYMELRSLRSEDTAVYYCARDSSNMVRGIIIAYYFDYWGQGTLVTVSS VL: EIVMTQSPSSLSASVGDRVTITCRASQSISRYLNWYQLKPGKAPRLLIYGASSLQSGVPSRFSGSGSGAEFTLTISSLQPEDIATYYCQHTRAFGQGTKVEIKR",koff,human OPGbp [143-317] [1],0.284 s⁻¹
same,IC50,human OPGbp [143-317] [2],440 nM
same,Kd,human OPGbp [143-317] [3],140 nM
same,koff,human OPGbp [143-317] [3],0.31 s⁻¹
same,kon,human OPGbp [143-317] [3],2.2e+06 M⁻¹ s⁻¹
same,IC50,human OPGbp [143-317] [4],550 nM
same,IC50,human OPGbp [143-317] [5],354 nM
same,"RAW cell assay (TRAP, OD405), IC50",human OPGbp [143-317] [6],15 µg/ml and 300 nM
same,"murine bone marrow assay, TRAP activity in solution (pNPP), 50% decrease (IC50)",human OPGbp [143-317] [6],57.8 nM
"“AT” Fab variant D95A (heavy chain CDR3) (Fab, name in Kabat numbering, V domains shown) VH: QVQLVQSGAEVRKPGASVKVSCKASGYDFSNYAIHWVRQAPGQRLEWMGWINAGNGNTKFSQKFQGRITVTRDTAASTAYMELRSLRSEDTAVYYCARASSNMVRGIIIAYYFDYWGQGTLVTVSS VL: EIVMTQSPSSLSASVGDRVTITCRASQSISRYLNWYQLKPGKAPRLLIYGASSLQSGVPSRFSGSGSGAEFTLTISSLQPEDIATYYCQHTRAFGQGTKVEIKR",binding result,human OPGbp [143-317] [1],no binding
"“AT” Fab variant G(100b)A (heavy chain CDR3) (Fab, name in Kabat numbering, V domains shown) VH: QVQLVQSGAEVRKPGASVKVSCKASGYDFSNYAIHWVRQAPGQRLEWMGWINAGNGNTKFSQKFQGRITVTRDTAASTAYMELRSLRSEDTAVYYCARDSSNMVRAIIIAYYFDYWGQGTLVTVSS VL: EIVMTQSPSSLSASVGDRVTITCRASQSISRYLNWYQLKPGKAPRLLIYGASSLQSGVPSRFSGSGSGAEFTLTISSLQPEDIATYYCQHTRAFGQGTKVEIKR",koff,human OPGbp [143-317] [1],0.657 s⁻¹
"“AT” Fab variant I(100c)A (heavy chain CDR3) (Fab, name in Kabat numbering, V domains shown) VH: QVQLVQSGAEVRKPGASVKVSCKASGYDFSNYAIHWVRQAPGQRLEWMGWINAGNGNTKFSQKFQGRITVTRDTAASTAYMELRSLRSEDTAVYYCARDSSNMVRGAIIAYYFDYWGQGTLVTVSS VL: EIVMTQSPSSLSASVGDRVTITCRASQSISRYLNWYQLKPGKAPRLLIYGASSLQSGVPSRFSGSGSGAEFTLTISSLQPEDIATYYCQHTRAFGQGTKVEIKR",koff,human OPGbp [143-317] [1],0.53 s⁻¹
"“AT” Fab variant I(100d)A (heavy chain CDR3) (Fab, name in Kabat numbering, V domains shown) VH: QVQLVQSGAEVRKPGASVKVSCKASGYDFSNYAIHWVRQAPGQRLEWMGWINAGNGNTKFSQKFQGRITVTRDTAASTAYMELRSLRSEDTAVYYCARDSSNMVRGIAIAYYFDYWGQGTLVTVSS VL: EIVMTQSPSSLSASVGDRVTITCRASQSISRYLNWYQLKPGKAPRLLIYGASSLQSGVPSRFSGSGSGAEFTLTISSLQPEDIATYYCQHTRAFGQGTKVEIKR",koff,human OPGbp [143-317] [1],0.622 s⁻¹
"“AT” Fab variant I(100e)A (heavy chain CDR3) (Fab, name in Kabat numbering, V domains shown) VH: QVQLVQSGAEVRKPGASVKVSCKASGYDFSNYAIHWVRQAPGQRLEWMGWINAGNGNTKFSQKFQGRITVTRDTAASTAYMELRSLRSEDTAVYYCARDSSNMVRGIIAAYYFDYWGQGTLVTVSS VL: EIVMTQSPSSLSASVGDRVTITCRASQSISRYLNWYQLKPGKAPRLLIYGASSLQSGVPSRFSGSGSGAEFTLTISSLQPEDIATYYCQHTRAFGQGTKVEIKR",koff,human OPGbp [143-317] [1],0.0069 s⁻¹
"“AT” Fab variant M99A (heavy chain CDR3) (Fab, name in Kabat numbering, V domains shown) VH: QVQLVQSGAEVRKPGASVKVSCKASGYDFSNYAIHWVRQAPGQRLEWMGWINAGNGNTKFSQKFQGRITVTRDTAASTAYMELRSLRSEDTAVYYCARDSSNAVRGIIIAYYFDYWGQGTLVTVSS VL: EIVMTQSPSSLSASVGDRVTITCRASQSISRYLNWYQLKPGKAPRLLIYGASSLQSGVPSRFSGSGSGAEFTLTISSLQPEDIATYYCQHTRAFGQGTKVEIKR",koff,human OPGbp [143-317] [1],1.12 s⁻¹
"“AT” Fab variant N98A (heavy chain CDR3) (Fab, name in Kabat numbering, V domains shown) VH: QVQLVQSGAEVRKPGASVKVSCKASGYDFSNYAIHWVRQAPGQRLEWMGWINAGNGNTKFSQKFQGRITVTRDTAASTAYMELRSLRSEDTAVYYCARDSSAMVRGIIIAYYFDYWGQGTLVTVSS VL: EIVMTQSPSSLSASVGDRVTITCRASQSISRYLNWYQLKPGKAPRLLIYGASSLQSGVPSRFSGSGSGAEFTLTISSLQPEDIATYYCQHTRAFGQGTKVEIKR",koff,human OPGbp [143-317] [1],0.012 s⁻¹
"“AT” Fab variant R(100a)A (heavy chain CDR3) (Fab, name in Kabat numbering, V domains shown) VH: QVQLVQSGAEVRKPGASVKVSCKASGYDFSNYAIHWVRQAPGQRLEWMGWINAGNGNTKFSQKFQGRITVTRDTAASTAYMELRSLRSEDTAVYYCARDSSNMVAGIIIAYYFDYWGQGTLVTVSS VL: EIVMTQSPSSLSASVGDRVTITCRASQSISRYLNWYQLKPGKAPRLLIYGASSLQSGVPSRFSGSGSGAEFTLTISSLQPEDIATYYCQHTRAFGQGTKVEIKR",koff,human OPGbp [143-317] [1],0.303 s⁻¹
"“AT” Fab variant S96A (heavy chain CDR3) (Fab, name in Kabat numbering, V domains shown) VH: QVQLVQSGAEVRKPGASVKVSCKASGYDFSNYAIHWVRQAPGQRLEWMGWINAGNGNTKFSQKFQGRITVTRDTAASTAYMELRSLRSEDTAVYYCARDASNMVRGIIIAYYFDYWGQGTLVTVSS VL: EIVMTQSPSSLSASVGDRVTITCRASQSISRYLNWYQLKPGKAPRLLIYGASSLQSGVPSRFSGSGSGAEFTLTISSLQPEDIATYYCQHTRAFGQGTKVEIKR",koff,human OPGbp [143-317] [1],0.0072 s⁻¹
"“AT” Fab variant S97A (heavy chain CDR3) (Fab, name in Kabat numbering, V domains shown) VH: QVQLVQSGAEVRKPGASVKVSCKASGYDFSNYAIHWVRQAPGQRLEWMGWINAGNGNTKFSQKFQGRITVTRDTAASTAYMELRSLRSEDTAVYYCARDSANMVRGIIIAYYFDYWGQGTLVTVSS VL: EIVMTQSPSSLSASVGDRVTITCRASQSISRYLNWYQLKPGKAPRLLIYGASSLQSGVPSRFSGSGSGAEFTLTISSLQPEDIATYYCQHTRAFGQGTKVEIKR",koff,human OPGbp [143-317] [1],0.0062 s⁻¹
"“AT” Fab variant V100A (heavy chain CDR3) (Fab, name in Kabat numbering, V domains shown) VH: QVQLVQSGAEVRKPGASVKVSCKASGYDFSNYAIHWVRQAPGQRLEWMGWINAGNGNTKFSQKFQGRITVTRDTAASTAYMELRSLRSEDTAVYYCARDSSNMARGIIIAYYFDYWGQGTLVTVSS VL: EIVMTQSPSSLSASVGDRVTITCRASQSISRYLNWYQLKPGKAPRLLIYGASSLQSGVPSRFSGSGSGAEFTLTISSLQPEDIATYYCQHTRAFGQGTKVEIKR",koff,human OPGbp [143-317] [1],0.261 s⁻¹
"“AT” Fab variant Y(100g)A (heavy chain CDR3) (Fab, name in Kabat numbering, V domains shown) VH: QVQLVQSGAEVRKPGASVKVSCKASGYDFSNYAIHWVRQAPGQRLEWMGWINAGNGNTKFSQKFQGRITVTRDTAASTAYMELRSLRSEDTAVYYCARDSSNMVRGIIIAAYFDYWGQGTLVTVSS VL: EIVMTQSPSSLSASVGDRVTITCRASQSISRYLNWYQLKPGKAPRLLIYGASSLQSGVPSRFSGSGSGAEFTLTISSLQPEDIATYYCQHTRAFGQGTKVEIKR",koff,human OPGbp [143-317] [1],0.074 s⁻¹
"“AT” Fab variant Y(100h)A (heavy chain CDR3) (Fab, name in Kabat numbering, V domains shown) VH: QVQLVQSGAEVRKPGASVKVSCKASGYDFSNYAIHWVRQAPGQRLEWMGWINAGNGNTKFSQKFQGRITVTRDTAASTAYMELRSLRSEDTAVYYCARDSSNMVRGIIIAYAFDYWGQGTLVTVSS VL: EIVMTQSPSSLSASVGDRVTITCRASQSISRYLNWYQLKPGKAPRLLIYGASSLQSGVPSRFSGSGSGAEFTLTISSLQPEDIATYYCQHTRAFGQGTKVEIKR",koff,human OPGbp [143-317] [1],0.368 s⁻¹
"human OPG [22-194]-Fc (Fc fusion, UniProt O00300 22-194, looked up, not shown: a dimerising Fc or GST) ETFPPKYLHYDEETSHQLLCDKCPPGTYLKQHCTAKWKTVCAPCPDHYYTDSWHTSDECLYCSPVCKELQYVKQECNRTHNRVCECKEGRYLEIEFCLKHRSCPPGFGVVQAGTPERNTVCKRCPDGFFSNETSSKAPCRKHTNCSVFGLLLTQKGNATHDNICSGNSESTQK","RAW cell assay, IC50, positive control",human OPGbp [143-317] [6],0.033 µg/mL
"Fab “Y” (Fab, V domains shown, also called soluble Fab “Y”; Fab pattern “Y”) VH: EVQLVQSGAEVRKPGASVKVSCKASGYDFSNYAIHWVRQAPGQRLEWMGWINAGNGNTKFSQKFQGRITVTRDTAASTAYMELRSLRSEDTAVYYCARDSSNMVRGIIIAYYFDYWGQGTLVTVSS VL: EIVLTQSPATLSFSPGERATLSCRASQSVGSYLAWYQQRPGQAPRPLIYDATNRATGIPTRFSGSGSGTDFTLTISSLEPEDFATYYCQHRRTFGRGTKLEIKR",Kd,human OPGbp [143-317] [3],594 nM
same,koff,human OPGbp [143-317] [3],0.00591 s⁻¹
same,kon,human OPGbp [143-317] [3],9440 M⁻¹ s⁻¹
same,IC50,human OPGbp [143-317] [4],6000 nM
same,IC50,human OPGbp [143-317] [5],4100 nM
